According to US20040077531A1, “Use of galanin-like peptide” (priority 2001, published 2004):

T1: rat-type galanin (SEQ ID NO: 61) (Rattus norvegicus, UniProt P10683)
T1 sequence (P10683 33-61 limits assumed): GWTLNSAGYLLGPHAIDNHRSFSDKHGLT

T2: pig-type ligand peptide (1-60) (SEQ ID NO: 31) (Sus scrofa, UniProt Q9TT95)
T2 construct: made in house
T2 sequence (Q9TT95 23-82): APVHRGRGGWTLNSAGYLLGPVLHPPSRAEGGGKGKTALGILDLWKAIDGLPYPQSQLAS


Legend:
[1] = molecular target: T1, rat-type galanin (SEQ ID NO: 61); test: Competitive EIA of monoclonal antibodies against rat galanin; assay type: binding; details: B/B0 in the presence of 100 nM immunogen; HRP-labeled SEQ ID NO: 44
[2] = molecular target: T2, pig-type ligand peptide (1-60) (SEQ ID NO: 31); test: Competitive EIA of monoclonal antibodies against pig-type ligand peptide; assay type: binding; details: B/B0 in the presence of 100 nM immunogen; HRP-labeled SEQ ID NO: 44

| Molecule | Reactivity Rat Galanin (SEQ ID NO: 61) [1] | Reactivity Pig Ligand (SEQ ID NO: 31) [2] |
| --- | --- | --- |
| 8 (protein, Porcine) MPRGCALLLASLLLASALSATLGLGSPVKEKRGWTLNSAGYLLGPHAIDNHRSFHDKYGLAGKRELEPEDEARPGGFDRLQSEDKAIRTIMEFLAFLHLKEAGALGRLPGLPSAASSEDAGQS | − (0.80 ≦ (B/B0)) | − (0.80 ≦ (B/B0)) |
| 3 (protein, Rat) MADIQNISLDSPGSVGAVAVPVIFALIFLLGMVGNGLVLAVLLQPGPSAWQEPSSTTDLFILNLAVADLCFILCCVPFQAAIYTLDAWLFGAFVCKTVHLLIYLTMYASSFTLAAVSLDRYLAVRHPLRSRALRTPRNARAAVGLVWLLAALFSAPYLSYYGTVRYGALELCVPAWEDARRRALDVATFAAGYLLPVAVVSLAYGRTLCFLWAAVGPAGAAAAEARRRATGRAGRAMLAVAALYALCWGPHHALILCFWYGRFAFSPATYACRLASHCLAYANSCLNPLVYSLASRHFRARFRRLWPCGRRRHRHHHRAHRALRRVQPASSGPAGYPGDARPRGWSMEPRGDALRGGGETRLTLSPRGPQ | − (0.80 ≦ (B/B0)) | ± (0.50 ≦ (B/B0) < 0.80) |
| 6 (protein, Rat) MADIQNISLDSPGSVGAVAVPVIFALIFLLGMVGNGLVLAVLLQPGPSAWQEPSSTTDLFILNLAVADLCFILCCVPFQAAIYTLDAWLFGAFVCKTVHLLIYLTMYASSFTLAAVSLDRYLAVRHPLRSRALRTPRNARAAVGLVWLLAALFSAPYLSYYGTVRYGALELCVPAWEDARRRALDVATFAAGYLLPVAVVSLAYGRTLCFLWAAVGPAGAAAAEARRRATGRAGRAMLAVAALYALCWGPHHALILCFWYGRFAFSPATYACRLASHCLAYANSCLNPLVYSLASRHFRARFRRLWPCGRRRHRHHHRAHRALRRVQPASSGPAGYPGDARPRGWSMEPRGDALRGGGETRLTLSPRGPQ | − (0.80 ≦ (B/B0)) | + ((B/B0) < 0.50) |
| 2 (protein, Rat) MNGSGSQGAENTSQEGGSGGWQPEAVLVPLFFALIFLVGTVGNALVLAVLLRGGQAVSTTNLFILNLGVADLCFILCCVPFQATIYTLDDWVFGSLLCKAVHFLIFLTMHASSFTLAAVSLDRYLAIRYPLHSRELRTPRNALAAIGLIWGLALLFSGPYLSYYRQSQLANLTVCHPAWSAPRRRAMDLCTFVFSYLLPVLVLSLTYARTLRYLWRTVDPVTAGSGSQRAKRKVTRMIIIVAVLFCLCWMPHHALILCVWFGRFPLTRATYALRILSHLVSYANSCVNPIVYALVSKHFRKGFRKICAGLLRPAPRRASGRVSILAPGNHSGSMLEQESTDLTQVSEAAGPLVPPPALPNCTASSRTLDPAC | − (0.80 ≦ (B/B0)) | + ((B/B0) < 0.50) |
| 5 (protein, Rat) MNGSGSQGAENTSQEGGSGGWQPEAVLVPLFFALIFLVGTVGNALVLAVLLRGGQAVSTTNLFILNLGVADLCFILCCVPFQATIYTLDDWVFGSLLCKAVHFLIFLTMHASSFTLAAVSLDRYLAIRYPLHSRELRTPRNALAAIGLIWGLALLFSGPYLSYYRQSQLANLTVCHPAWSAPRRRAMDLCTFVFSYLLPVLVLSLTYARTLRYLWRTVDPVTAGSGSQRAKRKVTRMIIIVAVLFCLCWMPHHALILCVWFGRFPLTRATYALRILSHLVSYANSCVNPIVYALVSKHFRKGFRKICAGLLRPAPRRASGRVSILAPGNHSGSMLEQESTDLTQVSEAAGPLVPPPALPNCTASSRTLDPAC | − (0.80 ≦ (B/B0)) | ± (0.50 ≦ (B/B0) < 0.80) |
| 1 (protein, Rat) MELAPVNLSEGNGSDPEPPAEPRPLFGIGVENFITLVVFGLIFAMGVLGNSLVITVLARSKPGKPRSTTNLFILNLSIADLAYLLFCIPFQATVYALPTWVLGAFICKFIHYFFTVSMLVSIFTLAAMSVDRYVAIVHSRRSSSLRVSRNALLGVGFIWALSIAMASPVAYYQRLFHRDSNQTFCWEHWPNQLHKKAYVVCTFVFGYLLPLLLICFCYAKVLNHLHKKLKNMSKKSEASKKKTAQTVLVVVVVFGISWLPHHVIHLWAEFGAFPLTPASFFFRITAHCLAYSNSSVNPIIYAFLSENFRKAYKQVFKCRVCNESPHGDAKEKNRIDTPPSTNCTHV | − (0.80 ≦ (B/B0)) | − (0.80 ≦ (B/B0)) |
| 4 (protein, Rat) MELAPVNLSEGNGSDPEPPAEPRPLFGIGVENFITLVVFGLIFAMGVLGNSLVITVLARSKPGKPRSTTNLFILNLSIADLAYLLFCIPFQATVYALPTWVLGAFICKFIHYFFTVSMLVSIFTLAAMSVDRYVAIVHSRRSSSLRVSRNALLGVGFIWALSIAMASPVAYYQRLFHRDSNQTFCWEHWPNQLHKKAYVVCTFVFGYLLPLLLICFCYAKVLNHLHKKLKNMSKKSEASKKKTAQTVLVVVVVFGISWLPHHVIHLWAEFGAFPLTPASFFFRITAHCLAYSNSSVNPIIYAFLSENFRKAYKQVFKCRVCNESPHGDAKEKNRIDTPPSTNCTHV | − (0.80 ≦ (B/B0)) | + ((B/B0) < 0.50) |
